Results reported in paper PMC6144507 (Molecular Pain, 2018).

Biological target: His-nNOS(1-299) (UniProt P29475-1 1-299)
Experiment: AlphaScreen or HTRF

His-nNOS(1-299), sequence (P29475 1-299): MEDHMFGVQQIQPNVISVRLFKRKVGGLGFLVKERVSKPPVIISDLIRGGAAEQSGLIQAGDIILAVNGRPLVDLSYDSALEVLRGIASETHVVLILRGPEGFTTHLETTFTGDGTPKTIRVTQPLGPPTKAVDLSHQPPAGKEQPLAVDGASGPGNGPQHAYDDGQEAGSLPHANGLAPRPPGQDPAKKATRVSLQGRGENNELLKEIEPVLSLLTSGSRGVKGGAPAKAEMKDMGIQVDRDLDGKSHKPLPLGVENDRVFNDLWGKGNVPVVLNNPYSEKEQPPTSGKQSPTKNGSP

- IC50: 4.9 µM
Binder: GRKKRRQRRRYAGQWGESV [L-TAT-GESV]
